The target in one data set is GAL4-RpBphP1. As to the kind of experiment: cell-based or functional assay.
Data set [1] deals with the molecule itself. Nature of the data set: analytical SEC of LDB-14 alone at different injected amounts, Superdex 200 Increase 10/300 GL.
Data set [2] concerns the molecule itself. Nature of the data set: analytical SEC of DrBphP alone, Superdex 200 Increase 10/300 GL.
Data set [3] concerns the molecule itself. As to the kind of experiment: analytical SEC of LDB-3 alone at different injected amounts, Superdex 200 Increase 10/300 GL.

Data on five molecules can be found in patent US12679884 (University of Washington, dated 2026).

Consider NLS-PpsR2-p65, for which the light-induced luciferase expression over dark expression (mammalian two-hybrid, HEK293T, 775-nm light) in the data set with GAL4-RpBphP1 turned out to be 2.95 fold.

B1: LDB-14-His (VHH, not shown: small tags and cut ends)
VHH: EVQLQASGGGFVQPGGSLRLSCAASGTTSRWESMGWFRQAPGKEREFVSAISWQNNSVPYYADSVKGRFTISRDNSKNTVYLQMNSLRAEDTATYYCAAQHNFLGHRYWGQGTQVTVSS
notes: Synthetic nanobody, expressed in E. coli WK6; used in SEC, ITC and photoconversion assays; SEC: mainly monomer
B1: the binding result in data set [1] is given as “binds”.

B2: DrBphP-His, light form (photosensory module of Deinococcus radiodurans bacteriophytochrome, biliverdin-bound, after 654-nm illumination) (other)
chain: MSRDPLPFFPPLYLGGPEITTENCEREPIHIPGSIQPHGALLTADGHSGEVLQMSLNAATFLGQEPTVLRGQTLAALLPEQWPALQAALPPGCPDALQYRATLDWPAAGHLSLTVHRVGELLILEFEPTEAWDSTGPHALRNAMFALESAPNLRALAEVATQTVRELTGFDRVMLYKFAPDATGEVIAEARREGLHAFLGHRFPASDIPAQARALYTRHLLRLTADTRAAAVPLDPVLNPQTNAPTPLGGAVLRATSPMHMQYLRNMGVGSSLSVSVVVGGQLWGLIACHHQTPYVLPPDLRTTLEYLGRLLSLQVQVKEAADVAAFRQSLREHHARVALAAAHSLSPHDTLSDPALDLLGLMRAGGLILRFEGRWQTLGEVPPAPAVDALLAWLETQPGALVQTDALGQLWPAGADLAPSAAGLLAISVGEGWSECLVWLRPELRLEVAWGGATPDQAKDDLGPRHSFDTYLEEKRGYAEPWHPGEIEEAQDLRDTLTGAL
modifications: biliverdin chromophore bound
notes: Same polypeptide as m2; differs only in the photoconverted state (654-nm light); Used in SEC, ITC, BLI and photoconversion assays; also called DrBphP light form
For the molecule B2, in data set [2], the binding result is on record as “binds”.

B3: DrBphP-His, dark form (photosensory module of Deinococcus radiodurans bacteriophytochrome, biliverdin-bound, after 775-nm illumination) (other)
chain: MSRDPLPFFPPLYLGGPEITTENCEREPIHIPGSIQPHGALLTADGHSGEVLQMSLNAATFLGQEPTVLRGQTLAALLPEQWPALQAALPPGCPDALQYRATLDWPAAGHLSLTVHRVGELLILEFEPTEAWDSTGPHALRNAMFALESAPNLRALAEVATQTVRELTGFDRVMLYKFAPDATGEVIAEARREGLHAFLGHRFPASDIPAQARALYTRHLLRLTADTRAAAVPLDPVLNPQTNAPTPLGGAVLRATSPMHMQYLRNMGVGSSLSVSVVVGGQLWGLIACHHQTPYVLPPDLRTTLEYLGRLLSLQVQVKEAADVAAFRQSLREHHARVALAAAHSLSPHDTLSDPALDLLGLMRAGGLILRFEGRWQTLGEVPPAPAVDALLAWLETQPGALVQTDALGQLWPAGADLAPSAAGLLAISVGEGWSECLVWLRPELRLEVAWGGATPDQAKDDLGPRHSFDTYLEEKRGYAEPWHPGEIEEAQDLRDTLTGAL
modifications: biliverdin chromophore bound
notes: Same polypeptide as m1; differs only in the photoconverted state (775-nm light); also called DrBphP dark form
Regarding B3, the binding result in data set [2] is listed as “binds”.

B4: LDB-3-His (VHH, not shown: small tags and cut ends)
VHH: EVQLQASGGGFVQPGGSLRLSCAASGFTWDHYIMGWFRQAPGKEREFVSAISENGDAWNYYADSVKGRFTISRDNSKNTVYLQMNSLRAEDTATYYCAIGFDVPSGRSWQGSHFWMYWGQGTQVTVSS
notes: Synthetic nanobody, expressed in E. coli WK6; used in SEC, ITC and photoconversion assays; SEC: mixture of monomer and dimer
With B4, in data set [3], the binding result is “binds”.
